Results on two molecules are retold here after US20170314036A1 (AGRESEARCH, published 2017).

The target of assay [1] is T1, Y2H BZR1-AD (Arabidopsis BZR1, At1g75080, full length, with N-terminal GAL4 activation domain; pDEST22-BZR1) (Arabidopsis).
T1 construct: Prey fusion in yeast; also called BZR1 fused to AD; Brassinazole Resistant 1
T1 chain: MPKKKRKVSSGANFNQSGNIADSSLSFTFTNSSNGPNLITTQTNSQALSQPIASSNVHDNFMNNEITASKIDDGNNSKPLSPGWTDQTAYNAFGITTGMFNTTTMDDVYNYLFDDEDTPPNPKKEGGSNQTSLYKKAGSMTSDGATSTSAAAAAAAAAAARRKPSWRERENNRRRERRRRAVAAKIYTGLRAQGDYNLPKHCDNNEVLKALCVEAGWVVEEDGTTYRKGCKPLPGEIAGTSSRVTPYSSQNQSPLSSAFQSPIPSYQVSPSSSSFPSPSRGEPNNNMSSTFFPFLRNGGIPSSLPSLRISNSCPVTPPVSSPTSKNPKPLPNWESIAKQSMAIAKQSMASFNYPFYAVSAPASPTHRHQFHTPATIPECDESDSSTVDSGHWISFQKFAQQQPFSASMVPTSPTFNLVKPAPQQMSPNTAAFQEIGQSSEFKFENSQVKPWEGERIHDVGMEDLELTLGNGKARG
Briefly: yeast two-hybrid (legend of FIG. 7). As for the experimental part:
(§1) The ProQuest two-hybrid system (Invitrogen) was used to analyse interactions between PPD1, NINJA, TPL, and BZR1. Combinations of bait and prey constructs were used to co-transform yeast strain MaV203 (Invitrogen), with selection on synthetic dropout (SD) SD/-Leu/-Trp agar plates. Transformed strains were tested for interactions using 10 μl droplets of 1 in 10 and 1 in 100 dilutions on SD/-Leu/-Trp/-His plates with different concentrations of 3-aminotriazol (3-AT) (Sigma).

In assay [2] the target is T2, Y2H NINJA-AD (Arabidopsis NINJA, At4g28910, full length, with N-terminal GAL4 activation domain); … (Arabidopsis).
T2 construct: Prey fusion in yeast; also called NINJA fused to AD
T2 chain: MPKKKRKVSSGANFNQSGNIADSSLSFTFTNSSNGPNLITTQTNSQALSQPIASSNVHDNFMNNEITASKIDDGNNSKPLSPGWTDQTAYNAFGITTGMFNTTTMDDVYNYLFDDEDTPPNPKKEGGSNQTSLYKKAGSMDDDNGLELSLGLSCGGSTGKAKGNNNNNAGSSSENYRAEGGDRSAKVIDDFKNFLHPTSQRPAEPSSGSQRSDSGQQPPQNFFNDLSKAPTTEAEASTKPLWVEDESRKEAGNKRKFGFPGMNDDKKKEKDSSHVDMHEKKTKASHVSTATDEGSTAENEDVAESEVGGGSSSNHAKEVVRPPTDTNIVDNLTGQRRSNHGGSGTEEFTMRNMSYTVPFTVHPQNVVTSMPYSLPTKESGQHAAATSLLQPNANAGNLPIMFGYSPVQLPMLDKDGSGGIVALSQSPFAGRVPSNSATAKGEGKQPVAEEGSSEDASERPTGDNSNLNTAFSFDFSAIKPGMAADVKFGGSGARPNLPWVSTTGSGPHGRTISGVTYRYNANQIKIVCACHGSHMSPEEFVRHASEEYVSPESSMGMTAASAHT
Description: yeast two-hybrid (legend of FIG. 6). As for the experimental part:
as §1

Assay [3] addresses T3, Y2H RGA1-AD (DELLA protein RGA1 with GAL4 activation domain).
T3 construct: Prey fusion in yeast, tested with PPD1-DBD as bait
T3 chain: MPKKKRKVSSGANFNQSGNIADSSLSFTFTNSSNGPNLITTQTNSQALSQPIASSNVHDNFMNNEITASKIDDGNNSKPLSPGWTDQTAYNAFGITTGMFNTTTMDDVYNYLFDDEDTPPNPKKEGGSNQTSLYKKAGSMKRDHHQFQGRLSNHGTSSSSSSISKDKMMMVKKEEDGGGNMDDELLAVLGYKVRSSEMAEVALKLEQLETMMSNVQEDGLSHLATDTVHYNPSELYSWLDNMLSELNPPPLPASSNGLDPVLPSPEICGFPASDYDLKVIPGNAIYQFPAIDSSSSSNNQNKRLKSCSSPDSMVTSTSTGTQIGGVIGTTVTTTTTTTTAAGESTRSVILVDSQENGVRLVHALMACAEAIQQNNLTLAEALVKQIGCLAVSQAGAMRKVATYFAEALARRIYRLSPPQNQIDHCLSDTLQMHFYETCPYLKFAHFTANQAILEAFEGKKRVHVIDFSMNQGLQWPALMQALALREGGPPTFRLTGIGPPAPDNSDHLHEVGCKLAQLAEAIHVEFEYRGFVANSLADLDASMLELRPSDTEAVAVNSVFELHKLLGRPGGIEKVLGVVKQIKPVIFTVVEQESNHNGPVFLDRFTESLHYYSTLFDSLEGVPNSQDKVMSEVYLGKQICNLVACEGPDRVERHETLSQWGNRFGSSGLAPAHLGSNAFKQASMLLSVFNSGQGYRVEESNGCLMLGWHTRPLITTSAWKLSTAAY
Briefly: yeast two-hybrid, PPD1-DBD as bait, selective medium with 15 mM 3AT. An excerpt: The ProQuest two-hybrid system (Invitrogen) was used to analyse interactions between PPD1, and RGA1. Full length coding sequences of PPD1, together with truncation or deletion derivatives of PPD1 (PPD1Δppd, PPD1Δtify, and PPD1Δjas*) (FIG. 5), were Gateway sub-cloned into pDEST32 (N-terminal GAL4DBD) or pDEST22 (N-terminal GAL4AD). When translated these generated the following peptide sequences: 55, 65, 66, 67, 68, 7169, which are PPD1-DBD, RGA1, RGA1-AD, PPD1-ppd-DBD, PPD1-tify-DBD, PP1-jas*-DBD respectively.
Combinations of bait and prey constructs were used to co-transform yeast strain MaV203 (Invitrogen), with selection on synthetic dropout (SD) SD/-Leu/-Trp agar plates. Transformed strains were tested for interactions using 10 μl droplets of 1 in 10 and 1 in 100 dilutions on SD/-Leu/-Trp/-His plates with different concentrations of 3-aminotriazol (3-AT) (Sigma). The PPD1-RGA1 interaction was tested with PPD1-DBD used as bait. Transformed yeast was spotted as a ten-fold dilution on control medium (−2) or selective medium (−3) with 15 mM 3AT. Controls were empty vectors, DBD, GAL4 DNA binding domain, AD, GAL4 activation domain (FIG. 5).

Assay [4] concerns the target T2, Y2H NINJA-AD (Arabidopsis NINJA, …). Briefly: yeast two-hybrid (legend of FIG. 7). On the procedure: as §1
Assay [5] concerns the target T4, Y2H PPD1-AD (Arabidopsis PPD1 full length with N-terminal GAL4 activation domain; pDEST22-PPD1) (Arabidopsis).
T4 construct: Prey fusion in yeast; The legend says only 'PPD'; also called PPD1 fused to AD
T4 chain: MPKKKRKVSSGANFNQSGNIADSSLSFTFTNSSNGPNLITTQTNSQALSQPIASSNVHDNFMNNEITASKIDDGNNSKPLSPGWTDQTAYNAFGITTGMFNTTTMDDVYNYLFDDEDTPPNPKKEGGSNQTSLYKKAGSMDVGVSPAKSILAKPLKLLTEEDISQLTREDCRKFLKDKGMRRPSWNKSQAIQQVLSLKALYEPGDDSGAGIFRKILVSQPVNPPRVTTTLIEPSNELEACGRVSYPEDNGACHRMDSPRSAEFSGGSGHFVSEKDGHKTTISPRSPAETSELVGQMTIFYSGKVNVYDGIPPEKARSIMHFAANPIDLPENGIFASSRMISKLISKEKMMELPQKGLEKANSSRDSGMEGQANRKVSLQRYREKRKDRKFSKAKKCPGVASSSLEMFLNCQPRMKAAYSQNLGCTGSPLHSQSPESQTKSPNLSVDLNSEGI
Briefly: yeast two-hybrid (legend of FIG. 6). On the procedure:
as §1

Assay [6] concerns the target T1, Y2H BZR1-AD (Arabidopsis BZR1, …). Description: yeast two-hybrid (ProQuest, MaV203, SD/-Leu/-Trp/-His with 3-AT). As for the experimental part:
as §1

B1: Y2H TPL-DBD (Arabidopsis TOPLESS, At1g15750, full length, with N-terminal GAL4 DNA binding domain; pDEST32-TPL) (other)
chain: MKLLSSIEEACNICRLKKLKCSKEKPKCAKCLKNNWECRYSPKTKRSPLTRAHLTEVESRLERLEQLFLLIFPRENLNMILKMDSLQDIKALLTGLFVQDNVNKDAVTDRLASVETDMPLTLRQHRISATSSSEESSNKGQRQLTVSSRSNQTSLYKKAGSMSSLSRELVFLILQFLDEEKFKETVHKLEQESGFFFNMKYFEDEVHNGNWDEVEKYLSGFTKVDDNRYSMKIFFEIRKQKYLEALDKHDRPKAVDILVKDLKVFSTFNEELFKEITQLLTLENFRENEQLSKYGDTKSARAIMLVELKKLIEANPLFRDKLQFPTLRNSRLRTLINQSLNWQHQLCKNPRPNPDIKTLFVDHSCGPPNGARAPSPVNNPLLGGIPKAGGFPPLGAHGPFQPTASPVPTPLAGWMSSPSSVPHPAVSAGAIALGGPSIPAALKHPRTPPTNASLDYPSADSEHVSKRTRPMGISDEVNLGVNMLPMSFSGQAHGHSPAFKAPDDLPKTVARTLSQGSSPMSMDFHPIKQTLLLVGTNVGDIGLWEVGSRERLVQKTFKVWDLSKCSMPLQAALVKEPVVSVNRVIWSPDGSLFGVAYSRHIVQLYSYHGGEDMRQHLEIDAHVGGVNDISFSTPNKQLCVITCGDDKTIKVWDAATGVKRHTFEGHEAPVYSVCPHYKENIQFIFSTALDGKIKAWLYDNMGSRVDYDAPGRWCTTMAYSADGTRLFSCGTSKDGESFIVEWNESEGAVKRTYQGFHKRSLGVVQFDTTKNRYLAAGDDFSIKFWDMDAVQLLTAIDGDGGLQASPRIRFNKEGSLLAVSGNENVIKIMANSDGLRLLHTFENISSESSKPAINSIAAAAAAAATSAGHADRSANVVSIQGMNGDSRNMVDVKPVITEESNDKSKIWKLTEVSEPSQCRSLRLPENLRVAKISRLIFTNSGNAILALASNAIHLLWKWQRNERNATGKATASLPPQQWQPASGILMTNDVAETNPEEAVPCFALSKNDSYVMSASGGKISLFNMMTFKTMATFMPPPPAATFLAFHPQDNNIIAIGMDDSTIQIYNVRVDEVKSKLKGHSKRITGLAFSNVLNVLVSSGADAQLCVWNTDGWEKQRSKVLPLPQGRPNSAPSDTRVQFHQDQAHFLVVHETQLAIYETTKLECMKQWAVRESLAPITHATFSCDSQLVYASFMDATVCVFSSANLRLRCRVNPSAYLPASLSNSNVHPLVIAAHPQEPNMFAVGLSDGGVHIFEPLESEGKWGVAPPAENGSASGAPTAPSVGASASDQPQR
notes: Bait fusion in yeast; also called TPL fused to DBD
With B1, the binding result in assay [1] and in assay [2] was “binds” in each case.

B2: Y2H PPD1-DBD (Arabidopsis PPD1, At4g14713, full length, with N-terminal GAL4 DNA binding domain; pDEST32-PPD1) (other)
chain: MKLLSSIEEACNICRLKKLKCSKEKPKCAKCLKNNWECRYSPKTKRSPLTRAHLTEVESRLERLEQLFLLIFPRENLNMILKMDSLQDIKALLTGLFVQDNVNKDAVTDRLASVETDMPLTLRQHRISATSSSEESSNKGQRQLTVSSRSNQTSLYKKAGSMDVGVSPAKSILAKPLKLLTEEDISQLTREDCRKFLKDKGMRRPSWNKSQAIQQVLSLKALYEPGDDSGAGIFRKILVSQPVNPPRVTTTLIEPSNELEACGRVSYPEDNGACHRMDSPRSAEFSGGSGHFVSEKDGHKTTISPRSPAETSELVGQMTIFYSGKVNVYDGIPPEKARSIMHFAANPIDLPENGIFASSRMISKLISKEKMMELPQKGLEKANSSRDSGMEGQANRKVSLQRYREKRKDRKFSKAKKCPGVASSSLEMFLNCQPRMKAAYSQNLGCTGSPLHSQSPESQTKSPNLSVDLNSEGI
notes: Bait fusion expressed in yeast strain MaV203 (ProQuest two-hybrid system); also called PPD1 fused to DBD; PPD1 bait
Turning to B2, the binding result was “binds” in assay [3], “binds” in assay [4], “binds” in assay [5] and “no binding” in assay [6].
